In assay [1] the target is CWI (cell wall invertase) extracted from mature soybean leaves (Glycine max (endogenous in mature leaves)).
In assay [2] the target is VI (vacuolar invertase) extracted from mature soybean leaves (Glycine max (endogenous in mature leaves)).

For recombinant GmC/VIF2 (natural protein), the inhibition of CWI activity (glucose released from sucrose) of a leaf cell-wall preparation after 30 min at 37 °C with recombinant GmC/VIF2; maximum at about 100 ng in assay [1] was 80%. In addition, in assay [2], the inhibition of VI activity (glucose released from sucrose) of a leaf soluble fraction after 30 min at 37 °C with recombinant GmC/VIF2; maximum at about 100 ng was 75%.

With recombinant GmCIF1 (natural protein), the inhibition of VI activity (glucose released from sucrose) of a leaf soluble fraction after 30 min at 37 °C with recombinant GmCIF1; maximum at about 50 ng, no further effect at 100 ng and 1000 ng in assay [2] is 70%.

The values are drawn from publication PMC5441900.
